How the values were obtained:
[1] = flow cytometry, mean YFP fluorescence, stable HepG2; conditions: glycan lost
[2] = confocal imaging, cell surface targeting, stable HepG2; conditions: glycan lost; control: wild-type hSVCT1-YFP
[3] = confocal imaging, apical targeting, polarized MDCK cells; conditions: glycan lost; control: wild-type hSVCT1-YFP
[4] = [14C]-ascorbic acid uptake, stable HepG2 cells; conditions: glycan lost; control: wild-type hSVCT1-YFP
[5] = confocal imaging, transiently transfected HepG2; conditions: glycan lost; control: untreated

Substance: hSVCT1: N138/N144Q
- expression_or_secretion ([1]; control: wild-type hSVCT1-YFP): decreases

Substance: hSVCT1: N138Q
- expression_or_secretion ([1]; control: wild-type hSVCT1-YFP): decreases
- localisation_or_trafficking [2]: decreases
- localisation_or_trafficking [3]: decreases

Substance: hSVCT1: N138Q/N144Q
- localisation_or_trafficking [3]: decreases

Substance: hSVCT1: N144Q
- other: transport activity [4]: decreases
- expression_or_secretion ([1]; control: wild-type hSVCT1-YFP): no change
- localisation_or_trafficking [2]: no change
- localisation_or_trafficking [3]: no change

Substance: hSVCT1: tunicamycin
- localisation_or_trafficking [5]: decreases
- expression_or_secretion ([1]; control: untreated): decreases

Substance: hSVCT2: N188/N196Q
- expression_or_secretion ([1]; control: wild-type hSVCT2-YFP): decreases

Substance: hSVCT2: N188Q
- expression_or_secretion ([1]; control: wild-type hSVCT2-YFP): decreases

Substance: hSVCT2: N196Q
- expression_or_secretion ([1]; control: wild-type hSVCT2-YFP): decreases

Substance: hSVCT2: tunicamycin
- localisation_or_trafficking [5]: no change
- expression_or_secretion ([1]; control: untreated): decreases

— article PMC2528843
